pKd: −log10 of the molar value. Several values for one entry are separate records, joined by “and”; a condition that tells them apart may be missing. Identical values can stand only once.
What was measured:
[1] = biological target: AKAP7γ-EGFP (human); assay: photon counting histogram analysis (fluorescence fluctuation); AKAP7γ-EGFP in live HEK-293 cells, cytoplasm; two-component global fit with brightness constrained to monomeric and tandem EGFP; apparent Kd, monomer to dimer; 75 measurements from 5 cells
[2] = biological target: His/S-tagged AKAP7γ (human); assay: SPR; Biacore T100; AKAP7γ or AKAP7α amine-coupled to a CM5 chip (150 RU) in separate flow chambers; analytes AKAP7γ or AKAP7α 12.5–200 nM in HBS (10 mM Hepes pH 7.4, 150 mM NaCl, 0.005% Surfactant P20), 30 μL/min, 300 s; heterogeneous analyte model

| Substance | pKd [1] | percent of the particles detected that are dimer [1] [%] | percent of the protein in the dimeric form [1] [%] | stoichiometry N [1] | KD, site 1 (heterogeneous analyte model) [2] [nM] | KD, site 2 (heterogeneous analyte model) [2] [nM] |
| --- | --- | --- | --- | --- | --- | --- |
| AKAP7γ-EGFP (natural protein) | 6.90 to 7.10 and 7.01 | 20 | 28.7 | 2 |  |  |
| His/S-tagged AKAP7γ (natural protein) |  |  |  |  | 0.537 | 79.7 |

Reference: PMC4568377
